In patent US20220195015A1 (published 2022):
Where a chain is given by its changes, count along the chain named.

B1: C510 (antibody, V domains shown)
VH: QVQLQQWGAGLLKPSETLSRTCAVYGGSFSGYYWSWFRQSPGKGLEWIGEINHSGSTNYNPSLKNRVTISVDTSKNQFSLMLSSVTAADTAVYYCARGGFGVVINYYYSGMDVWGRGTTVTVSS
VL: not shown
B2: C517 (antibody, V domains shown)
VH: EVQLVESGGGLVQPGGSLRLSCAASEFIVSRNYMSWVRQAPGKGLEWVSLIYSGGSTYYADSVKGRFTISRDNSKNTLYLQMNSLRAEDTAMYYCARDIAGRLDYWGQGTLVTVSS
VL: DIQMTQSPSSLSASVGDRVTITCQASQDISKYLNWYQQKPGKAPKLLIYDASNLETGVPSRFSGSGSGTDFTFTISSLQPEDFATYYCQHYDSLSRLTFGGGTKVEIK
B3: C514 (antibody, V domains shown)
VH: B2 VH with S30T, S53P, Y58F, Y79F, Q81H, M92V, I99L
VL: B2 VL with S30N, K31N, Y32F, F83I, T85I, H90Q
B4: C507 (antibody, V domains shown)
VH: EVQLVESGGGVVQPGRSLRLSCAASGFTFSSYAIHWVRQAPGKGLEWVAVISFDGSNKYYRDSVKGRFTISRDNGKNTLYLQMNSLRAEDTAVYYCAKAALGYCTNGVCYCDNWGQGTLVTVSS
VL: NFMLTQPHSVSESPGKTVTISCTGSSGSIASNYVQWYQQRPGSAPTTVIYEDNQRPSGVPDRFSGSIDSSSNSASLSISGLKTEDEADYYCQSYDINSLWVFGGGTRLTVL
B5: C506 (antibody, V domains shown)
VH: EVQLVESGGGLVQPGGSLRLSCAASGFTFSSYDMHWVRQGTGKGLEWVSVIGTAGDAYYPGSVKGRFTISRENAKNSLYLQMNSLRAGDTAVYYCARMVYDSSGFKGYFDLWGRGTLVTVSS
VL: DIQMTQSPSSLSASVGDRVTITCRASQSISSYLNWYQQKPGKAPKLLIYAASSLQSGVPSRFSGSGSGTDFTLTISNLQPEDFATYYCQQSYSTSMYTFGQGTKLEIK
B6: C539 (antibody, V domains shown)
VH: EVQLVESGGGLVQPGRSLRLSCAASGFTFDDYALHWVRQAPGKGLEWVSGISWNGDSIGYADSVKGRFTISRDNAKNSLSLQMNSLTAEDTALYYCAKGVEYSSSSNCDYWGQGTLVTVSS
VL: DIQMTQSPSSVSASVGDRVTITCRASQDISSWLAWYQQKPGKAPKLLISLASGLQSGVPSRFSGSGSETDFTLTISSLQPEDFATYYCQQTNSFPLTFGGGTKVEI
B7: C540 (antibody, V domains shown)
VH: EVQLVESGGGLVQPGGSLRLSCAASGFTFRNYDMHWVRQVAGKGLEWVSAIGTSGDTYYPDSVKGRFTISRENAKNSVYLQMNNLRAGDTAVYFCVRDREISGWTGWYFDLWGRGTLVTVSS
VL: DIQMTQSPSSLSASVGDRVTITCRASQTIHNYLNWYQQIPGKAPRLLIYATNTLQSGVPSRFSGSGSGTDFTLTITGLQPEDFATYYCQQSYSTPPITFGQGTRLEIK
B8: C073 (antibody, V domains shown)
VH: QLQLQESGPGLVKPSETLSLTCTVSGASIPSSTSYWGWIRQPPGKGLEWIGSIYYTGSTYYNPSLKSRVTISVDTSKNHFSLILSSVTAADTAVYYCARRSITLAGRDCLDFWGQGTLVTVSS
VL: DIQLTQSPSSLSASVGDRLTITCRASQSITTSLNWYQQKPGKAPKLLIYAASSLQSGVPSRFSGSGSGTDFTLAISSLQPEDFATYYCQQSYIPLLTFGGGTKVDIK
B9: C597 (antibody, V domains shown)
VH: QVQLVQSGPEVKKPGTSVKVSCKASGFTFTNSAVQWVRQSRRQRLEWIGWIVVGSGNTNYAQKFQERVTITRDMSTSTAYMELSSLRSEDTAVYYCAAVDCNSTSCYDAFDIWGQGTMVTVSS
VL: EIVLTQSPGTLSLSPGERATLSCRASQSFRSSYLAWYQQKPGQAPRLLIYGASSRATGIPDRFSGSGSGSDFTLTISRLEPEDFAVYYCQQYDISPWTFGQGTKVEIK
B10: C598 (antibody, V domains shown)
VH: QVQLVQSGPEVKKPGTSVKVSCKASGFTFSSSAVQWVRQARGQRLEWIGWIVVGSGNTNYAQKFQERVTITRDMSTSTAYMELSSLRSEDTAVFYCAAPYCNVTTCFDGFNIWGRGTMVTVSS
VL: B9 VL with F29V, L34F, G51A, S70T, V86L, D93G, I94S
B11: C515 (antibody, V domains shown)
VH: EVQLVESGGGLVQPGGSLRLSCAASGFIVSSNYMSWVRQAPGKGLEWVSILYSGGSTYYADSVKGRFTISRDNSKNTLYLQMNSLRAEDTAVYYCARDLVVYGADYWGQGTLVTVSS
VL: DIQLTQSPSFLSASVGDRVTITCRASQGISSYLAWYQQKPGKAPKLLIYAASTLQSGVPSRFSGSGSGTEFTLTISSLQPEDFATYYCQQLNSYPPPFGGGTKVEIK
B12: C511 (antibody, V domains shown)
VH: EVQLVESGGGLVQPGGSLRLSCAATEITVSSNYMTWVRQAPGKGLEWVSVIYPGGSTFYADSVKGRFSISRDNSKNTLYLQMNSLRAEDTAVYYCARDLVVYGLDCWGQGTLVTVSS
VL: B11 VL with S93T
B13: C516 (antibody, V domains shown)
VH: QVQLVQSGAEVKKPGSSVKVSCKASGGTFSSYAISWVRQAPGQGLEWMGRIIPMLVIATYARKFQGRVTITADKSTSTAYMELSSLRSEDTAVYYCARGVVAATPGNFDIWGQGTMVTVSS
VL: EIVMTQSPATLSVSPGERATLSCRASQSVSSNLAWYQQKPGQAPRLLIYGASTRATGIPARFSGSGSGTEFTLTISSLQSEDFAVYYCQQYNNGLTFGGGTKVEIK
B14: C502 (antibody, V domains shown)
VH: QVQLVQSGAEVKKPGSSVKVSCKASGDTFSSHAINWVRQAPGQGLEWMGRSIPMLGVTTSAQKFKGRVTITADHSTSTVFMDLSSLRSDDTAIYYCARGVVGATPGSFDLWGQGTMVTVSS
VL: B13 VL with E17K, S30R, K39R, G50D, S52A, A60T, N92D
B15: C132 (antibody, V domains shown)
VH: QVQLQESGPGLVKPSGTLSLTCAVSGGSISSNNWWSCVRQPPGKGLEWIGEIYHSGSTNYNPSLKSRVTISVDKSKNQFSLKLSSVTAADTAVYYCARGGDTAMGPEYFDYWGQGTLVTVSS
VL: QSALTQPASVSGSPGQSITISCTGTSSDVGGYNYVSWYQQHPGKAPKLMIYDVSNRPSGVSNRFSGSKSGNTASLTISGLQAEDEADYYCSSYTSSSTLLFGGGTKLTVL
B16: C512 (antibody, V domains shown)
VH: B15 VH with G26A, C37W, I52V, S55N, S57N, T58I, I70L, R98K, T102R, Y111S
VL: B15 VL with G31A, Y32N, S54N, N55E, A82T, Y93F, T94A
B17: C513 (antibody, V domains shown)
VH: EVQLLESGGGLVQPGGSLRLSCVASGFSFSTYAMSWVRQAPGQGLEWVSTITGTSIGTYYADSVKGRFTISRDNSKNTVFLQMKSLRAEDAAVYYCANHPLASGDEYYYYYMDVWGKGTTVTVSS
VL: EIVLTQSPDTLSLSPGERATLSCRASQSVHSKQLAWYQQKPGQAPRLLIYGASSRATGIPDRFSGSGSGTDFTLTISRLEPEDFAVYYCQQYGSIRALTFGGGTKVEIK
B18: C509 (antibody, V domains shown)
VH: QVQLQESGPGLVKPSGTLSLTCAVSGGSISSSNWWSWVRQPPGKGLEWIGEIYNSGSTNYNPSLKSRVTILVDKSKNQFSLKLSSVTAADTAVYYCAGSYSNYIGGVWFDPWGQGTLVTVSS
VL: EIVLTQSPATLSLSPGERATLSCRASQSVSTYLAWYQQKPGQAPRLLIYDASNRATGIPARFSGSGSGTDFTLTISSLEPEDFAVYYCQQRNNWLTFGGGTKVEIK
B19: C077 (antibody, V domains shown)
VH: QVQLVQSGAEVKKPGASVKVSCKASGYTFTSYAMHWVRQAPGQRLEWMGWINTDNGNTKYSQKFQGRVTITRDTSASTAYMELSSLRSEDTAVYYCAREGALTNWFDPWGQGTLVTVSS
VL: SYELTQPPSVSVAPGQTARIPCGGNNIGSKSVHWYQQKPGQAPVLVVYDDSDRPSGIPERFSGSNSGNTATLTISRVEAGDEADYYCQVWDSSSDLHVVFGGGTKLTVL
B20: C505 (antibody, V domains shown)
VH: EVQLLESGGGLVQPGGSLRLSCADSGFSFSTYGMSWVRQAPGKGLEWVSTISGSGDNTYHADSVKGRFTISRDNSKNTLYLQMNSLRAEDTAVYYCAKNIAEMSTFDDYFYYYGMDVWGQGTTVTVSS
VL: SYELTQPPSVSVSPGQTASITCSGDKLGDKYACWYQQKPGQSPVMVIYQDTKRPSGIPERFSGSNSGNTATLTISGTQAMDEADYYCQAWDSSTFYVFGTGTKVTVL
B21: C547 (antibody, V domains shown)
VH: QVQLVESGGGVVQPGRSLRLSCAASGFTFSSYGMHWVRQAPGKGLEWVAVISYDGSNKYYADSVKGRFTISRDNSKNTLYLQMNSLRAEDTAVYYCAKDTPGGDDILTGWGLYGMDVWGQGTTVTVSS
VL: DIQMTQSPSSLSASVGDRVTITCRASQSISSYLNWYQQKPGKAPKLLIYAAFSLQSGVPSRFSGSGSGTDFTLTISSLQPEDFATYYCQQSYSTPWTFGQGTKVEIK
B22: C543 (antibody, V domains shown)
VH: B21 VH with A23T, S31T, Y32A, Y59D, N77S, A88P, L107M
VL: DIQMTQSPSSLSASVGDRVTITCRASQSISSYLNWYHQKPGKAPKLLIYAAISLQSGVPSRFSGSGFGTDFTLTISSLQPEDFAIYYCQQSYSTPWTFGQGTKVEIK
B23: C504 (antibody, V domains shown)
VH: QVQLQESGPGLVKPSETLSLTCTVSGGSISSSYWNWIRQSPGKGLEWIGYIYYDGYTTFNPSLKSRVTISVDTSKNQFSLKLSSVTAADTAFYYCAAGLKGRSSSWYEYWGQGTLVTVSS
VL: B22 VL with H37Q, A51T, I52S, F67S, S76T, I85T, S91T, T94S, W96H, V104L
B24: C503 (antibody, V domains shown)
VH: QVQLQESGPGLVQPSGTLSLSCTVTGGSISSNNWWSWVRQSPVKGLEWIGEIYHNGNINYNPSLKSRVTMSIDKSKNHFSLKLSSVTAADTAVYYCARGDVLDWFDPWGQGTLVTVS
VL: QSALTQPASVSGSPGQSITFSCTGTSSDVGAYNYISWYQQHPGKAPKLMIYDVNNRPSGVSRRFSGSKSGNTASLTISGLQSEDEADYFCSSYAGNSTVRFGGGTKLTVL
B25: C563 (antibody, V domains shown)
VH: EVQLVESGGGLVKPGGSLRLSCAASGFPFTNAWMSWVRQAPGKGLEWVGHIKDYTDGGTTDYAAPVKGKFTISRDDSKNTLYLHMNSLKTEDTAVYYCSTVGSYYYDSRGPTSDAFDIWGQGTLVTVSS
VL: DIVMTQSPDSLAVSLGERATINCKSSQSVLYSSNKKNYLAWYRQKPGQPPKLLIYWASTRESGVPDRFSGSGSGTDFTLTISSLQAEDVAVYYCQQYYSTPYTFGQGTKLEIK

The binders below were run against SARS-CoV-2 spike receptor binding domain (RBD), S protein residues 319-539 (SARS-CoV-2, UniProt P0DTC2 319-539) (assay: ELISA on coated RBD).
Work on B1 yielded an EC50 of 5.94 ng/mL.
Binder B2 has an EC50 of 0.87 ng/mL.
With B3 the EC50 was 0.82 ng/mL.
Work on B4 yielded an EC50 of 5.6 ng/mL.
With B5 the EC50 was 16 ng/mL.
Binder B6 has an EC50 of 1.3 ng/mL.
B7 gave an EC50 of 2.9 ng/mL.
With B8 the EC50 was 20.6 ng/mL.
B9 was tested, and the EC50 was 3.77 ng/mL.
In the case of B10, the EC50 is reported as 3.78 ng/mL.
Work on B11 yielded an EC50 of 1.73 ng/mL.
B12 gave an EC50 of 1.33 ng/mL.
In the case of B13, the EC50 is reported as 5.72 ng/mL.
With B14 the EC50 was 6.48 ng/mL.
For B15, the EC50 was 3.56 ng/mL.
B16 was tested, and the EC50 was 1.68 ng/mL.
Binder B17 has an EC50 of 1.31 ng/mL.
B18 was tested, and the EC50 was 4.44 ng/mL.
Work on B19 yielded an EC50 of 45.9 ng/mL.
Work on B20 yielded an EC50 of 9.08 ng/mL.
B21 was tested, and the EC50 was 1.78 ng/mL.
In the case of B22, the EC50 is reported as 1.28 ng/mL.
Work on B23 yielded an EC50 of 6.55 ng/mL.
In the case of B24, the EC50 is reported as 6.48 ng/mL.

Each binder was assayed against SARS-CoV-2 RBD (wild type) (SARS-CoV-2, UniProt P0DTC2 319-539) (assay: ELISA on coated RBD).
B25 was tested, and the EC50 was 1.19 ng/mL.
